From article PMC8710476 (Frontiers in Immunology, 2021)

Target: Recombinant SARS-CoV-2 RBD (residues R319–F541) (SARS-CoV-2, UniProt P0DTC2)
Assay: SPR
Conditions: both partners purified

B1: REGN10987 (class III) (antibody, V domains shown)
VH: QVQLVESGGGVVQPGRSLRLSCAASGFTFSNYAMYWVRQAPGKGLEWVAVISYDGSNKYYADSVKGRFTISRDNSKNTLYLQMNSLRTEDTAVYYCASGSDYGDYLLVYWGQGTLVTVSS
VL: QSALTQPASVSGSPGQSITISCTGTSSDVGGYNYVSWYQQHPGKAPKLMIYDVSKRPSGVSNRFSGSKSGNTASLTISGLQSEDEADYYCNSLTSISTWVFGGGTKLTVL
- Kd: < 0.01 nM
